Data taken from patent US20140322196A1.

Experiments:
[1] = target: Hemagglutinin (HA) of Influenza SW [change] 1089/09 swine pandemic H1N1 (inactivated subunits, vaccine) (Influenza A virus SW [change] swine pandemic H1N1); test: cell-based or functional assay
[2] = target: Hemagglutinin (HA) of Avian 29/05/06 H5N1 (inactivated vaccine) (Influenza A virus Avian 29/05/06 H5N1); test: cell-based or functional assay

Substance	HI titre [1]	HI titre [2]
Lactoferrin from bovine milk (bLf) (from UniProt P24627 20-708)	46.5 fM	2900 fM
… (SEQ ID NO: 1), bLf C-lobe peptide 418-429	5.8 fM	18 fM
… (SEQ ID NO: 2), bLf C-lobe peptide 506-522	46 fM	70 fM
